For 35 variants, abundance fitness results are on record in the Human Domainome abundance scans (Beltran et al. 2025).

± gives the uncertainty stated by the source.

B1: Ankyrin-3, residues 4094 to 4171; numbered along this chain, Q12955 (parent)
chain: MAIVADHLGLSWTELARELNFSVDEINQIRVENPNSLISQSFMLLKKWVTRDGKNATTDALTSVLTKINRIDIVTLLE

The variants in this series derive from B1. Nature of the series: abundance fitness (aPCA) (normalised: wild type 0, dead -1); higher = more abundant; growth selection in yeast, the domain comes from the species named. The conditions noted are these: Homo sapiens.
Regarding MAIVADHLGLSWTELARELNFSVDEINQIRVENPKSLISQSFMLLKKWVTRDGKNATTDALTSVLTKINRIDIVTLLE [N35K], the abundance fitness is -0.329 ± 0.12. Take MAIVADHLGLSWTELARELNFSVDEINQIRVENPNFLISQSFMLLKKWVTRDGKNATTDALTSVLTKINRIDIVTLLE [S36F]: the abundance fitness is -0.717 ± 0.27.

Consider MAIVADHLGLSWTELARELNFSVDEINQIRVENPNMLISQSFMLLKKWVTRDGKNATTDALTSVLTKINRIDIVTLLE [S36M], for which the abundance fitness was -0.778 ± 0.2. For the variant MAIVADHLGLSWTELARELNFSVDEINQIRVENPNRLISQSFMLLKKWVTRDGKNATTDALTSVLTKINRIDIVTLLE [S36R], the abundance fitness is -0.449 ± 0.081. Turning to MAIVADHLGLSWTELARELNFSVDEINQIRVENPNPLISQSFMLLKKWVTRDGKNATTDALTSVLTKINRIDIVTLLE [S36P], the abundance fitness was -0.878 ± 0.12. For MAIVADHLGLSWTELARELNFSVDEINQIRVENPNQLISQSFMLLKKWVTRDGKNATTDALTSVLTKINRIDIVTLLE [S36Q], the abundance fitness is -0.336 ± 0.11. For the variant MAIVADHLGLSWTELARELNFSVDEINQIRVENPNLLISQSFMLLKKWVTRDGKNATTDALTSVLTKINRIDIVTLLE [S36L], the abundance fitness was -0.933 ± 0.14. In the case of MAIVADHLGLSWTELARELNFSVDEINQIRVENPNNLISQSFMLLKKWVTRDGKNATTDALTSVLTKINRIDIVTLLE [S36N] it was -0.044 ± 0.14; in that of MAIVADHLGLSWTELARELNFSVDEINQIRVENPNTLISQSFMLLKKWVTRDGKNATTDALTSVLTKINRIDIVTLLE [S36T], -0.297 ± 0.087. In the case of MAIVADHLGLSWTELARELNFSVDEINQIRVENPNCLISQSFMLLKKWVTRDGKNATTDALTSVLTKINRIDIVTLLE [S36C] it was -0.184 ± 0.11; in that of MAIVADHLGLSWTELARELNFSVDEINQIRVENPNKLISQSFMLLKKWVTRDGKNATTDALTSVLTKINRIDIVTLLE [S36K], -0.626 ± 0.14; in that of MAIVADHLGLSWTELARELNFSVDEINQIRVENPNALISQSFMLLKKWVTRDGKNATTDALTSVLTKINRIDIVTLLE [S36A], -0.609 ± 0.085.

MAIVADHLGLSWTELARELNFSVDEINQIRVENPNHLISQSFMLLKKWVTRDGKNATTDALTSVLTKINRIDIVTLLE [S36H]: the abundance fitness is -0.295 ± 0.15. In the case of MAIVADHLGLSWTELARELNFSVDEINQIRVENPNVLISQSFMLLKKWVTRDGKNATTDALTSVLTKINRIDIVTLLE [S36V] it was -0.952 ± 0.16; in that of MAIVADHLGLSWTELARELNFSVDEINQIRVENPNDLISQSFMLLKKWVTRDGKNATTDALTSVLTKINRIDIVTLLE [S36D], 0.155 ± 0.11. Turning to MAIVADHLGLSWTELARELNFSVDEINQIRVENPNGLISQSFMLLKKWVTRDGKNATTDALTSVLTKINRIDIVTLLE [S36G], the abundance fitness was -0.28 ± 0.053. In the case of MAIVADHLGLSWTELARELNFSVDEINQIRVENPNELISQSFMLLKKWVTRDGKNATTDALTSVLTKINRIDIVTLLE [S36E] it was -0.172 ± 0.085; in that of MAIVADHLGLSWTELARELNFSVDEINQIRVENPNSMISQSFMLLKKWVTRDGKNATTDALTSVLTKINRIDIVTLLE [L37M], -0.014 ± 0.07. In the case of MAIVADHLGLSWTELARELNFSVDEINQIRVENPNSVISQSFMLLKKWVTRDGKNATTDALTSVLTKINRIDIVTLLE [L37V] it was 0.048 ± 0.067.

MAIVADHLGLSWTELARELNFSVDEINQIRVENPNSKISQSFMLLKKWVTRDGKNATTDALTSVLTKINRIDIVTLLE [L37K]: the abundance fitness is -0.169 ± 0.15.

Consider MAIVADHLGLSWTELARELNFSVDEINQIRVENPNSWISQSFMLLKKWVTRDGKNATTDALTSVLTKINRIDIVTLLE [L37W], for which the abundance fitness was -0.395 ± 0.12. In the case of MAIVADHLGLSWTELARELNFSVDEINQIRVENPNSEISQSFMLLKKWVTRDGKNATTDALTSVLTKINRIDIVTLLE [L37E] it was 0.026 ± 0.099; in that of MAIVADHLGLSWTELARELNFSVDEINQIRVENPNSDISQSFMLLKKWVTRDGKNATTDALTSVLTKINRIDIVTLLE [L37D], -0.254 ± 0.11.

For MAIVADHLGLSWTELARELNFSVDEINQIRVENPNSPISQSFMLLKKWVTRDGKNATTDALTSVLTKINRIDIVTLLE [L37P], the abundance fitness is -0.089 ± 0.056. In the case of MAIVADHLGLSWTELARELNFSVDEINQIRVENPNSRISQSFMLLKKWVTRDGKNATTDALTSVLTKINRIDIVTLLE [L37R] it was -0.526 ± 0.084; in that of MAIVADHLGLSWTELARELNFSVDEINQIRVENPNSNISQSFMLLKKWVTRDGKNATTDALTSVLTKINRIDIVTLLE [L37N], -0.359 ± 0.16; in that of MAIVADHLGLSWTELARELNFSVDEINQIRVENPNSHISQSFMLLKKWVTRDGKNATTDALTSVLTKINRIDIVTLLE [L37H], -0.107 ± 0.072.

As for MAIVADHLGLSWTELARELNFSVDEINQIRVENPNSQISQSFMLLKKWVTRDGKNATTDALTSVLTKINRIDIVTLLE [L37Q], the abundance fitness is -0.032 ± 0.052. In the case of MAIVADHLGLSWTELARELNFSVDEINQIRVENPNSCISQSFMLLKKWVTRDGKNATTDALTSVLTKINRIDIVTLLE [L37C] it was -0.15 ± 0.096.

For the variant MAIVADHLGLSWTELARELNFSVDEINQIRVENPNSTISQSFMLLKKWVTRDGKNATTDALTSVLTKINRIDIVTLLE [L37T], the abundance fitness is -0.03 ± 0.076. In the case of MAIVADHLGLSWTELARELNFSVDEINQIRVENPNSGISQSFMLLKKWVTRDGKNATTDALTSVLTKINRIDIVTLLE [L37G] it was -0.413 ± 0.068; in that of MAIVADHLGLSWTELARELNFSVDEINQIRVENPNSAISQSFMLLKKWVTRDGKNATTDALTSVLTKINRIDIVTLLE [L37A], -0.095 ± 0.065; in that of MAIVADHLGLSWTELARELNFSVDEINQIRVENPNSSISQSFMLLKKWVTRDGKNATTDALTSVLTKINRIDIVTLLE [L37S], -0.132 ± 0.064. As for MAIVADHLGLSWTELARELNFSVDEINQIRVENPNSYISQSFMLLKKWVTRDGKNATTDALTSVLTKINRIDIVTLLE [L37Y], the abundance fitness was -0.141 ± 0.16.

As for MAIVADHLGLSWTELARELNFSVDEINQIRVENPNSFISQSFMLLKKWVTRDGKNATTDALTSVLTKINRIDIVTLLE [L37F], the abundance fitness was -0.231 ± 0.094.
